The values that follow come from patent publication US20140134169A1, “Methods of Treating Ovarian Cancer with Dll4 Antagonists” (Regeneron Pharmaceuticals, Inc., priority 2012, published 2014).

The subject of one experiment is TOV-112D cells. Put plainly: TOV-112D ovarian xenograft (subcutaneous) tumor growth inhibition. Type of experiment: in vivo, human. Here is the method:
Ovarian tumor xenograft cells were implanted into humanized Dll4 SCID mice or vendor SCID mice (i.e., SCID mice expressing native murine Dll4). After implantation, mice were treated with REGN421 (anti-human Dll4 antibody, binds to human Dll4), mDll4Ab1 (anti-murine Dll4 antibody, binds to murine Dll4), or a human Fc domain control protein. In one study, mice were treated with VEGF-Trap, mDll4Ab1 or VEGF-Trap plus mDll4Ab1. TOV-112D cells (5×10^6) were implanted subcutaneously into the right flank of humanized Dll4 (n=4) or vendor SCID mice (n=7). Treatment with REGN421 (2.5 mg/kg, 1×/week) or mDll4Ab1 (5 mg/kg, 1×/week) vs. hFc control was initiated one week after tumor cell implantation. Animals were treated for 2 to 3 weeks. A2780 cells (2×10^6) were implanted intraperitoneally into humanized Dll4 or vendor SCID mice (n=4-5). Treatment with REGN421 (2.5 mg/kg, 1×/week) or mDll4Ab1 (5 mg/kg, 1×/week) vs. hFc control was initiated one week after tumor cell implantation. For the A2780 combination study, simultaneous treatment with mDll4Ab1 (5 mg/kg, 1×/week) and VEGF-Trap (10 mg/kg, 2×/week) was initiated one week after tumor cell implantation. A VEGF-Trap single treatment arm was included in this study. Animals bearing A2780 tumors were treated for 4-5 weeks. SKOV-3 cells (5×10^6) in matrigel were implanted subcutaneously and tumor-bearing animals (n=10) were dosed with REGN421 (2.5 mg/kg) and mDll4Ab1 (5 mg/kg) once weekly. OVCAR-3 cells (1×10^7) were implanted subcutaneously into the right flank of vendor SCID mice (n=7). Treatment with mDll4Ab1 (5 mg/kg 1×/week) vs. hFc control was initiated 66 days after tumor cell implantation. Animals were treated for a total of 5 weeks. Tumor growth inhibition (TGI) was measured as detailed above.
On the technique in general: Xenograft models place foreign cells or tissue in a host animal.

Experiment [1] relates to Hey1 gene expression in Colo205 human colorectal tumor cells. The experiment is described as follows: Hey1 gene expression in Colo205 tumors in humanized Dll4 SCID mice (microarray). Type of experiment: in vivo. As for the experimental part:
The effect of anti-hDll4 antibody on differential gene expression in tumors was studied in humanized Dll4 SCID mice implanted with human Colo205 colorectal tumor cells. Briefly, Male and female humanized Dll4 SCID mice were subcutaneously implanted with 2×10^6 Colo205 cells per mouse. When the tumors reached ˜150 mm^3, mice (4 animals per group) were treated with a single dose of REGN421 at 0.5, 5 or 15 mg/kg, or of hFc control at 15 mg/kg. The tumors were excised at 5 hrs, 10 hrs, 24 hrs, 72 hrs and 7 days after the treatment and stored in RNA later stabilization reagent (Qiagen). Tumor RNA was purified using the RNeasy® Midi Kit (Qiagen). Tissue was homogenized in lysis buffer containing […] in a mixer mill, loaded onto the columns and unbound contaminants washed through. DNase I digestion was performed on the column and RNA was eluted in RNase-free water. Cyanine 3 (Cy3)-CTP was incorporated into amplified cRNA from 500 ng of total RNA using the Quick Amp™ RNA Amplification Kit (Agilent Technologies). Cy3-labeled cRNA from each sample was then hybridized to a custom array covering both the mouse and human transcriptome. The hybridization and wash of the arrays were performed according to the manufacture's protocol and arrays were scanned on an Agilent Microarray scanner. The data were extracted from scanned array images using the Agilent Feature Extraction Software 9.5. […]

Experiment [2] concerns human HCT116 tumor cells (CRC). The experiment is described as follows: Growth of human HCT116 tumors in humanized Dll4 SCID mice (5-FU study). Particulars: REGN421 2 mg/kg sc (6 mg/kg total). Format: in vivo. Here is the method:
Each mouse was implanted subcutaneously (sc) with 5×10^6 human HCT116 tumor cells (CRC). […] The mice were then treated with hFc, REGN421, 5-FU or combination of REGN421 and 5-FU. A total of 30 mice were divided into 6 groups (n=5 per cohort). The first group was treated sc with hFc at 2 mg/kg; the second group was treated sc with REGN421 at 2 mg/kg; the third and fourth groups were treated ip with 5-FU at 15 and 25 mg/kg, respectively; the fifth group was treated sc with REGN421 at 2 mg/kg and ip with 5-FU at 15 mg/kg; and the sixth group was treated sc with REGN421 at 2 mg/kg and ip with 5-FU at 25 mg/kg. REGN421 was administered every 3-4 days starting on day 22 and mice received three doses total. 5-FU was administered every 3-4 days starting on day 22 and mice received three doses total.
To assess the effects of REGN421 and 5-FU as single agents or in combination, the changes in tumor size (volume) were measured, beginning three days before the initial REGN421 treatment, and then on the day of each agent treatment (days 22, 26, 29) and thereafter every 3-4 days until tumors reach ˜600 mm^3 in size. In vivo tumor size is calculated using the formula (length×width^2)/2 (FIG. 3 and Table 5).

B1: REGN421 (antibody, V domains shown)
VH: QVQLVESGGGVVQPGRSLRLSCAASGFTFSSYGMHWVRQAPGKGLEWVSFLWYDGTNKNYVESVKGRFTISRDNSKNMLYLEMNSLRAEDTAVYYCARDHDFRSGYEGWFDPWGQGTLVTVSS
VL: EIVLTQSPATLSLSPGERATLSCRASQSVSSYLAWYQQKPGQAPRLLIYDASNRATGIPARFSGSGSGTDFTLTISSLEPEDFAVYYCQHRSNWPPTFGGGTKVEIK
B1: the “% TGI” value with TOV-112D cells (Humanized Dll4 SCID mice, REGN421 2.5 mg/kg 1x/week) is 86%; with TOV-112D cells (SCID mice (native murine Dll4), REGN421 2.5 mg/kg or mDll4Ab1 5 mg/kg 1x/week), 0%. The “anti-tumor activity (in words)” value in the experiment on TOV-112D cells (vendor SCID mice) is given as “did not exhibit any appreciable anti-tumor activity”. The “Hey1 mRNA levels compared to control hFc-treated mice” value in experiment [1] (single dose 0.5 mg/kg (lowest dose)) was “No significant decrease”; in experiment [1] (single dose REGN421, starting at 10 hours, most significantly at 72 hours and 7 days post-treatment), “decreased”. Besides, the “TGD” value in experiment [2] came to 6 days. In addition, the “TGI(%) at Day 39” value in experiment [2] is recorded as 36.3%.
